Test results: US20240166760A1 (UNIVERSITY OF PITTSBURGH OF THE COMMONWEALTH SYSTEM OF …, published 2024)

What was measured:
[1] = molecular target: T1, human CEACAM7 on Freestyle 293F cells (human, UniProt Q14002 36-242); assay: flow cytometry on transfected HEK293F cells
T1 construct: whole, on cells; Gene carries a FLAG-tag at the C-terminal; Transiently expressed
T1 sequence (looked up): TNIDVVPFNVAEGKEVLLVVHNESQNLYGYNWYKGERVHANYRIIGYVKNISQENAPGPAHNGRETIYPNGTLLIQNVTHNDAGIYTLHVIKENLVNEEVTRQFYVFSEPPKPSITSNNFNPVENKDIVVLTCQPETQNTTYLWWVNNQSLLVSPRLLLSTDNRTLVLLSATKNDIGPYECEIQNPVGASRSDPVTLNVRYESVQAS
Experimental: (§1) To determine the cell surface expression levels of CEACAM5 or CEACAM family proteins, the cells were stained with PE-conjugated anti-CEACAM5 IgG1 (Miltenyi Biotec, 130-114-217) or PE-conjugated anti-FLAG mouse antibody (Miltenyi Biotec, 130-101-576). To confirm cell surface binding of selected antibodies, cells were treated with a hIgG1 having the CDRs of Clone #1, a hIgG1 having the CDRs of Clone #2, or the Clone #1 Fab for 1 hour at 4° C. and then stained with Alexa647-conjugated goat anti-human IgG (Invitrogen, A21445) or FITC conjugated-goat anti-human kappa light chain (Invitrogen, A18854) for 0.5 hours at 4° C. For the internalization assays, cells (1×10⁵ cells/well in 96-well plate) were treated with Alexa488-labeled antibodies for durations between 0 and 30 hours. After incubation of antibodies, cells were washed with cold PBS, and then the remained cell surface binding antibodies were analyzed using Alexa488 fluorescence. For CAR expression on anti-CEACAM5 CAR-T cells, CD4⁺ T or CD8⁺ T cells were gated using APC-conjugated anti-human CD4 antibody (ebioscience, 17-0049-42) and eFluor450-conjugated anti-human CD8 antibody (ebioscience, 48-0088-42), and CAR expression was examined using FITC-labeled recombinant Protein L (Acrobiosystems, RPL-PF141).

[2] = molecular target: T2, human CEACAM8 on Freestyle 293F cells (human, UniProt P31997 35-320); assay: flow cytometry on transfected HEK293F cells
T2 construct: whole, on cells; Gene carries a FLAG-tag at the C-terminal; Transiently expressed
T2 sequence (looked up): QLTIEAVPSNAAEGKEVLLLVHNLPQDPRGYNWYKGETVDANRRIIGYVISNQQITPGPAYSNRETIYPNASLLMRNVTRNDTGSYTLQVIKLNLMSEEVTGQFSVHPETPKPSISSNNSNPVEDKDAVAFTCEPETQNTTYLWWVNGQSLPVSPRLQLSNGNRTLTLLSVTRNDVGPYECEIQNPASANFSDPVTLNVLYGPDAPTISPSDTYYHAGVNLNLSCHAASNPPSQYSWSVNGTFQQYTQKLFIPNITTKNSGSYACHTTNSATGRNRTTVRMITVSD
Experimental: as §1

[3] = molecular target: T3, human CEACAM16 on Freestyle 293F cells (human, UniProt Q2WEN9 21-425); assay: flow cytometry on transfected HEK293F cells
T3 construct: whole, on cells; Gene carries a FLAG-tag at the C-terminal; Transiently expressed
T3 sequence (looked up): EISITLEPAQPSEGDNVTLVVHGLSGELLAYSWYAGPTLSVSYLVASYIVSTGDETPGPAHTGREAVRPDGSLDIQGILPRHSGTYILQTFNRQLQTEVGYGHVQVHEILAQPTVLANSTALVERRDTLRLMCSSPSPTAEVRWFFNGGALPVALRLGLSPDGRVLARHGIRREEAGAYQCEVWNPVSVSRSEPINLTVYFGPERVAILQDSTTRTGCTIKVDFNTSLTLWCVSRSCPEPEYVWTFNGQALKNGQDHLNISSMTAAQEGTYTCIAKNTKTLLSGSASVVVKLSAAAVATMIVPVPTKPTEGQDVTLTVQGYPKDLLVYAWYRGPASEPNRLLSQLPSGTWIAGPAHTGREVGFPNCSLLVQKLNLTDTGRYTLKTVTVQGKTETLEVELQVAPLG
Experimental: as §1

[4] = molecular target: T4, human CEACAM18 on Freestyle 293F cells (human, UniProt A8MTB9 31-384); assay: flow cytometry on transfected HEK293F cells
T4 construct: whole, on cells; Gene carries a FLAG-tag at the C-terminal; Transiently expressed
T4 sequence (looked up): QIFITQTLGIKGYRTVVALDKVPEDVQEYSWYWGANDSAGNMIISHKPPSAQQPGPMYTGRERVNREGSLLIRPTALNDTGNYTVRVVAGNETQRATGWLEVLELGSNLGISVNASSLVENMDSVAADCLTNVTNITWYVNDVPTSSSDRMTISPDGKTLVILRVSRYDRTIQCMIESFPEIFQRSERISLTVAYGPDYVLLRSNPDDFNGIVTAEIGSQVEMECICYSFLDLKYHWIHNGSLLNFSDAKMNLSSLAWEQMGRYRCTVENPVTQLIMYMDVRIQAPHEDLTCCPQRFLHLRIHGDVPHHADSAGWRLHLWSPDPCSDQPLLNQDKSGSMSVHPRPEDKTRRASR
Experimental: as §1

[5] = molecular target: T5, human CEACAM20 on Freestyle 293F cells (human, UniProt Q6UY09 31-596); assay: flow cytometry on transfected HEK293F cells
T5 construct: whole, on cells; Gene carries a FLAG-tag at the C-terminal; Transiently expressed
T5 sequence (Q6UY09 31-596): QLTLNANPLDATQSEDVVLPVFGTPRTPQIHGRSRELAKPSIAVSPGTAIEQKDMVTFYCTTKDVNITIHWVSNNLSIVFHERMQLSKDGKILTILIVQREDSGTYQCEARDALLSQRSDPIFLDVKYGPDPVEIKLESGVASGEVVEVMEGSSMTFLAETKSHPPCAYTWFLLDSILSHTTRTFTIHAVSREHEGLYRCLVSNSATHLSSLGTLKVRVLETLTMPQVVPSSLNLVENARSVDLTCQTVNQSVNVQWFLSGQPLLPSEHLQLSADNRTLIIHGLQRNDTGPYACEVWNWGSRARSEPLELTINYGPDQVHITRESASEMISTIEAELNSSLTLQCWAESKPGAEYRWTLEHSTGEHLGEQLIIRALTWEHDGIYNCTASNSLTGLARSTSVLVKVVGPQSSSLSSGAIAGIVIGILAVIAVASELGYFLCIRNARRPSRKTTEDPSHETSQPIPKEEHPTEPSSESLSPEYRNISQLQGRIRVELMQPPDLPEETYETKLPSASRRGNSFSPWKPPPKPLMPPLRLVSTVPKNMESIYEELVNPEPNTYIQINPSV
Experimental: as §1

[6] = molecular target: T6, human CEACAM21 on Freestyle 293F cells (human, UniProt Q3KPI0 35-293); assay: flow cytometry on transfected HEK293F cells
T6 construct: whole, on cells; Gene carries a FLAG-tag at the C-terminal; Transiently expressed
T6 sequence (Q3KPI0 35-293): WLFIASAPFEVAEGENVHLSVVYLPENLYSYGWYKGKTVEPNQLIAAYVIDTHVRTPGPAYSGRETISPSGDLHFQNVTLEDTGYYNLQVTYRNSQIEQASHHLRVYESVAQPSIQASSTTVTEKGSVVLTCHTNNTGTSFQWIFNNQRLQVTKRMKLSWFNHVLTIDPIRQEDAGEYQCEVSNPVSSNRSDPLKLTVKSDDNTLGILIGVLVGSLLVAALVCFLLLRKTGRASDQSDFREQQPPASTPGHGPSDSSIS
Experimental: as §1

[7] = molecular target: T7, Human IgG1 Fc-fused CEACAM5 A3B3 (residues 501-682) (UniProt P06731 501-682); assay: SPR (Biacore)
T7 chain: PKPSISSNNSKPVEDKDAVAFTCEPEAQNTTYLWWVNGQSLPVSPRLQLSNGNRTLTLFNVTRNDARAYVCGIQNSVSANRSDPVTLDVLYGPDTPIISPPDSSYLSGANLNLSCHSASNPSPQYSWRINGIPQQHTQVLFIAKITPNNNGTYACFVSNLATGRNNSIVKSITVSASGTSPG

B1: Clone #1 Fab (1G9 Fab) (Fab, V domains shown)
VH: QVQLVESGGGLVKPGGSLRLSCAASGFTFSDYYMSWIRQAPGKGLEWVSYISSSGSTIYYADSVKGRFTISRDNAKNSLYLQMNSLRAEDTAVYYCARIGRYSYGLRSYYYYGMDVWGQGTTVTVSS
VL: DIQMTQSPSSLSASVGDRVTITCRASQSISSYLNWYQQKPGKAPKLLIYAASSLQSGVPSRFSGSGSGTDFTLTISSLQPEDFGVYYCMQALQTPVTFGQGTRLEIKR
notes: Human Fab from a phage library (IGHV3-11 / IGKV1-39 frameworks), made in E. coli and purified on Ni-NTA
B1: no binding [1]; no binding [2]; no binding [3]. B1: no binding [4]; no binding [5]; no binding [6]. For the same binder, the Kd [7] was 1.91 nM.
